Source: publication PMC4499140 (Nucleic Acids Research, 2015)

Columns and labels:
[1] = biological target: T1, Rv1222 (Mycobacterium tuberculosis H37Rv) (UniProt L0T905); assay: fluorescence anisotropy
T1 sequence: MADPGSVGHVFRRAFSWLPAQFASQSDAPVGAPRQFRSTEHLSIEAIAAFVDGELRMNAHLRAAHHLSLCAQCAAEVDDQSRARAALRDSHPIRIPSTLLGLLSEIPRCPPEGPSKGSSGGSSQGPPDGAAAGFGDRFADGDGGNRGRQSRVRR

[2] = biological target: T2, Mycobacterium tuberculosis sigma factor E (Mycobacterium tuberculosis, UniProt P9WGG7 1-257); assay: fluorescence polarisation
T2 sequence: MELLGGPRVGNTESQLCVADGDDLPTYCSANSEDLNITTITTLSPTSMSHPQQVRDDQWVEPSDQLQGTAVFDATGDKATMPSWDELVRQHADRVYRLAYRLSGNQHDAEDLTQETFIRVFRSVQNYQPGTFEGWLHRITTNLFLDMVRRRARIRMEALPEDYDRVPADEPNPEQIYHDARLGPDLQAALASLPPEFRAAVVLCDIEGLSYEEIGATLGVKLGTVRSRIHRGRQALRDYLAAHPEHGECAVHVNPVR

[3] = biological target: T3, Mycobacterium tuberculosis sigma factor A (Mycobacterium tuberculosis, UniProt P9WGI1 1-528); assay: fluorescence polarisation
T3 sequence: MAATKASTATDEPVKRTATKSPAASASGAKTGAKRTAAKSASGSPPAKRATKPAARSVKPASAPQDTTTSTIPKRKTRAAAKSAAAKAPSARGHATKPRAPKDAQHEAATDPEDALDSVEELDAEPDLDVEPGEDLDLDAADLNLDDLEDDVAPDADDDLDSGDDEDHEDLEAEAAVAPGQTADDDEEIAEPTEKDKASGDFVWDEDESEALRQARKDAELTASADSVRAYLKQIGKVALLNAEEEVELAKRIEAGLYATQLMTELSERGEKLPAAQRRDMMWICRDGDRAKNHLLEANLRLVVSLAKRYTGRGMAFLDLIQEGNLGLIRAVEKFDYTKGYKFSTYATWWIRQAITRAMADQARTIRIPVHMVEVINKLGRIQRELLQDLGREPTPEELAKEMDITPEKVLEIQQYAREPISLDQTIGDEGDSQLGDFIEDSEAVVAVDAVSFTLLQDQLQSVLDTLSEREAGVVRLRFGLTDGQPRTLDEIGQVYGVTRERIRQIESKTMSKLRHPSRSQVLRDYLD

[4] = biological target: E. coli DNA polymerase (Klenow fragment) (E. coli, UniProt P00582 324-928); assay: fluorescence polarisation
Chain of E. coli DNA polymerase (Klenow fragment) (P00582 324-928): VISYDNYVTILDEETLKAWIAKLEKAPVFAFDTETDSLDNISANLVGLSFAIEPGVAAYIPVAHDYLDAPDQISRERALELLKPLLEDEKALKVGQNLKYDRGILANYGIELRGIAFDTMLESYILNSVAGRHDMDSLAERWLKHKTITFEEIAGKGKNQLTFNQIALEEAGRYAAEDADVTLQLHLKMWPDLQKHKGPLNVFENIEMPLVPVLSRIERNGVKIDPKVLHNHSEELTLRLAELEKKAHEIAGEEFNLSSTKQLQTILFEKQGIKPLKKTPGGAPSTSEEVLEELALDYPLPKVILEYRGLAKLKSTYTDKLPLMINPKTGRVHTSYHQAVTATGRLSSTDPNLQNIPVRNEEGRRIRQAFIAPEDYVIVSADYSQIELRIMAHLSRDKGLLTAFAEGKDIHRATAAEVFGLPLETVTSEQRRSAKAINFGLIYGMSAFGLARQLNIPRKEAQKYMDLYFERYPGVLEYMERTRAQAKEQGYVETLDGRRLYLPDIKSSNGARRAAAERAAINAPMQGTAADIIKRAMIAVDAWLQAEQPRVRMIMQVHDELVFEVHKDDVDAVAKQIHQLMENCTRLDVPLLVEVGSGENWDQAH

“GTGAGTATCTCGCAGTCCGACGCGTCGTTGGCCGCCGTCCCCGCCGTGGATCAGTTCGATCCGTCGTCAGGTGCATCAGGTGGCTACGACACCCCGCTGGGCATCACCAATCCGCCCATCGACGAGTTGCTGGACCGCGTCTCGAGCAAATACGCCCTCGTGATCTATGCGGCAAAGCGTGCCCGGCAGATCAACGACTACTACAACCAGCTTGGCGAGGGCATCCTCGAATATGTCGGTCCGCTGGTTGAGCCGGGGTTGCAAGAGAAGCCGTTGTCCATCGCGTTGCGCGAGATCCACGCCGATCTGCTCGAGCACACCGAGGGCGAGTAG (double strand) [promoterless DNA fragment]” was tested, and the Kd [1] was 52 nM.

B1: Rv1222 of Mycobacterium tuberculosis, TMR labelled (natural protein)
chain: MADPGSVGHVFRRAFSWLPAQFASQSDAPVGAPRQFRSTEHLSIEAIAAFVDGELRMNAHLRAAHHLSLCAQCAAEVDDQSRARAALRDSHPIRIPSTLLGLLSEIPRCPPEGPSKGSSGGSSQGPPDGAAAGFGDRFADGDGGNRGRQSRVRR
Molecule B1 has a Kd [2] of roughly 270 nM, a Kd [3] of roughly 690 nM and a Kd [4] of 245 ± 78 nM.
